Consider 7 compounds from publication PMC7387793, “Structural Basis and Evolution of Glycan Receptor Specificities within the Polyomavirus Family” (mBio, 2020).

What is called stoichiometry N is the number of molecules, sites or subunits per partner or assembly.

For assay [1], the target named is T1, GhPyV VP1 (Goose hemorrhagic polyomavirus, UniProt A0A860PKB9).
T1 construct: truncated VP1, residues 21-286, E. coli BL21(DE3), His tag cut by thrombin (GSHM left), pentamer; site includes counterclockwise monomer
In words: X-ray crystal structure (soak). In kind it is binding. The conditions noted are these: crystal soaked with 20 mM 2-O-Me-Neu5Ac, 17 h, MES/imidazole pH 6.5, 1.95 Å; BC2 loop site.

Assay [2] has as its target Chimpanzee polyomavirus (ChPyV) major capsid protein VP1, N- and C-terminally truncated, C154S (chimpanzee polyomavirus (ChPyV)). In words: crystal structure; X-ray structures of truncated, assembly-incompetent VP1 pentamers, native and soaked with sialylated glycans; solved by molecular replacement with 5-fold NCS restraints.
The target of assay [3] is Finch polyomavirus (FiPyV) major capsid protein VP1, amino acids 22 to 291, C78S C92S (finch polyomavirus (FiPyV)). Described as above.
The target of assay [4] is Goose hemorrhagic polyomavirus (GhPyV) major capsid protein VP1, amino acids 21 to 286 (goose hemorrhagic polyomavirus (GhPyV)). Described as above.
The target of assay [5] is Human polyomavirus 12 (HPyV12) major capsid protein VP1, amino acids 27 to 299 (human polyomavirus 12 (HPyV12)). Described as above.
Assay [6] concerns the target New Jersey polyomavirus (NJPyV) major capsid protein VP1, amino acids 36 to 323 (New Jersey polyomavirus-2013 (NJPyV)). The description is as above.
Assay [7] has as its target Sheep polyomavirus (ShPyV) major capsid protein VP1, amino acids 20 to 285, C95S (sheep polyomavirus (ShPyV)). Described as above.

As to `CO[C@]1(C(=O)O)C[C@H](O)[C@@H](NC(C)=O)[C@H]([C@H](O)[C@H](O)CO)O1` [2-O-Me-Neu5Ac], the “X-ray crystal structure (soak)” value in assay [1] was “GhPyV VP1 with 2-O-Me-Neu5Ac”.
In turn, “Chimpanzee polyomavirus (ChPyV) major capsid protein VP1, N- and C-terminally truncated, C154S (domain or fragment)” registered a stoichiometry N in assay [2] of 5.
“Finch polyomavirus (FiPyV) major capsid protein VP1, amino acids 22 to 291, C78S C92S (domain or fragment)” yielded a stoichiometry N in assay [3] of 5.
In assay [4], “Goose hemorrhagic polyomavirus (GhPyV) major capsid protein VP1, amino acids 21 to 286 (domain or fragment)” showed a stoichiometry N of 5.
With “Human polyomavirus 12 (HPyV12) major capsid protein VP1, amino acids 27 to 299 (domain or fragment)”, in assay [5], the stoichiometry N was 5.
The compound “New Jersey polyomavirus (NJPyV) major capsid protein VP1, amino acids 36 to 323 (domain or fragment)” had a stoichiometry N in assay [6] of 5.
Consider “Sheep polyomavirus (ShPyV) major capsid protein VP1, amino acids 20 to 285, C95S (domain or fragment)”, for which, in assay [7], the stoichiometry N is 5.
